Results from patent US20060057144A1.

Biological target: PsFcγRIIa (recombinant soluble human FcγRIIa protein produced in baculovirus-infected Sf-21 cells) (human) (UniProt P12318)
Test: SPR competition; monomeric IgG (0 to 2 mg/ml) premixed with 50 ug/ml PsFcγRIIa, passed over immobilised IgG1

molar excess giving complete inhibition (fold molar excess): 6
Substance: monomeric IgG (Sandaglobulin, available from Sandoz) (antibody)
